Measured values from patent US20230407373A1 (priority 2020, published 2023).
Where two headings read alike, the source gives them in different places.

Assays:
gRNA of HCoV-OC43 = type: binding; details: for target (spectral count) / background (spectral count): type g_36_m, 36 hpi, Probe I; for target (spectral count): HCoV-OC43-infected HCT-8 cells; for background (spectral count): uninfected-probe control; for target (spectral count, OC43 Probe I RNP capture) / background (spectral count, no-probe control): type n_48_v: 48 hours post-infection; for target (spectral count, OC43 Probe I RNP capture): infected cells, unweighted spectral count; for background (spectral count, no-probe control): no-probe control on infected cells
HCoV-OC43 gRNA and sgRNA = type: binding; details: for target (unweighted spectral count, OC43 Probe II capture) / target (unweighted spectral count): tested against no-probe control; for target (unweighted spectral count, OC43 Probe II capture): FDR<10%; for target (unweighted spectral count): OC43 Probe II, 24 hpi (type n_24_v), infected cells; for target (unweighted spectral count, OC43 Probe II) / background (unweighted spectral count, no-probe control): type n_48_v, 48 hpi; for target (unweighted spectral count, OC43 Probe II): OC43 Probe II capture on infected cells; for background (unweighted spectral count, no-probe control): no-probe control on infected cells; for target (spectral count) / background (spectral count): type s_36_m, Probe II; for target (spectral count): HCoV-OC43-infected HCT-8 cells; for background (spectral count): uninfected-probe control

Molecule | target (spectral count) (gRNA of HCoV-OC43) | background (spectral count) (gRNA of HCoV-OC43) | target (spectral count, OC43 Probe I RNP capture) (gRNA of HCoV-OC43) | background (spectral count, no-probe control) (gRNA of HCoV-OC43) | target (unweighted spectral count, OC43 Probe II capture) (HCoV-OC43 gRNA and sgRNA; 36 hpi, type n_36_v) | target (unweighted spectral count) (HCoV-OC43 gRNA and sgRNA) | target (unweighted spectral count, OC43 Probe II) (HCoV-OC43 gRNA and sgRNA) | background (unweighted spectral count, no-probe control) (HCoV-OC43 gRNA and sgRNA) | target (spectral count) (HCoV-OC43 gRNA and sgRNA; 36 hpi) | background (spectral count) (HCoV-OC43 gRNA and sgRNA; 36 hpi) | target (unweighted spectral count, OC43 Probe II capture) (HCoV-OC43 gRNA and sgRNA; 24 hpi, type n_24_v)
TECR: host protein, UniProt Q9NZ01 (protein, UniProt Q9NZ01 1-308, looked up) Very-long-chain enoyl-CoA …: MKHYEVEILDAKTREKLCFLDKVEPHATIAEIKNLFTKTHPQWYPARQSLRLDPKGKSLKDEDVLQKLPVGTTATLYFRDLGAQISWVTVFLTEYAGPLFIYLLFYFRVPFIYGHKYDFTSSRHTVVHLACICHSFHYIKRLLETLFVHRFSHGTMPLRNIFKNCTYYWGFAAWMAYYINHPLYTPPTYGAQQVKLALAIFVICQLGNFSIHMALRDLRPAGSKTRKIPYPTKNPFTWLFLLVSCPNYTYEVGSWIGFAIMTQCLPVALFSLVGFTQMTIWAKGKHRSYLKEFRDYPPLRMPIIPFLL | 9 | 1 | – | – | – | – | – | – | – | – | –
UPF1: host protein, UniProt Q92900 (protein, UniProt Q92900 1-1129, looked up) Regulator of nonsense …: MSVEAYGPSSQTLTFLDTEEAELLGADTQGSEFEFTDFTLPSQTQTPPGGPGGPGGGGAGGPGGAGAGAAAGQLDAQVGPEGILQNGAVDDSVAKTSQLLAELNFEEDEEDTYYTKDLPIHACSYCGIHDPACVVYCNTSKKWFCNGRGNTSGSHIVNHLVRAKCKEVTLHKDGPLGETVLECYNCGCRNVFLLGFIPAKADSVVVLLCRQPCASQSSLKDINWDSSQWQPLIQDRCFLSWLVKIPSEQEQLRARQITAQQINKLEELWKENPSATLEDLEKPGVDEEPQHVLLRYEDAYQYQNIFGPLVKLEADYDKKLKESQTQDNITVRWDLGLNKKRIAYFTLPKTDSGNEDLVIIWLRDMRLMQGDEICLRYKGDLAPLWKGIGHVIKVPDNYGDEIAIELRSSVGAPVEVTHNFQVDFVWKSTSFDRMQSALKTFAVDETSVSGYIYHKLLGHEVEDVIIKCQLPKRFTAQGLPDLNHSQVYAVKTVLQRPLSLIQGPPGTGKTVTSATIVYHLARQGNGPVLVCAPSNIAVDQLTEKIHQTGLKVVRLCAKSREAIDSPVSFLALHNQIRNMDSMPELQKLQQLKDETGELSSADEKRYRALKRTAERELLMNADVICCTCVGAGDPRLAKMQFRSILIDESTQATEPECMVPVVLGAKQLILVGDHCQLGPVVMCKKAAKAGLSQSLFERLVVLGIRPIRLQVQYRMHPALSAFPSNIFYEGSLQNGVTAADRVKKGFDFQWPQPDKPMFFYVTQGQEEIASSGTSYLNRTEAANVEKITTKLLKAGAKPDQIGIITPYEGQRSYLVQYMQFSGSLHTKLYQEVEIASVDAFQGREKDFIILSCVRANEHQGIGFLNDPRRLNVALTRARYGVIIVGNPKALSKQPLWNHLLNYYKEQKVLVEGPLNNLRESLMQFSKPRKLVNTINPGARFMTTAMYDAREAIIPGSVYDRSSQGRPSSMYFQTHDQIGMISAGPSHVAAMNIPIPFNLVMPPMPPPGYFGQANGPAAGRGTPKGKTGRGGRQKNRFGLPGPSQTNLPNSQASQDVASQPFSQGALTQGYISMSQPSQMSQPGLSQPELSQDSYLGDEFKSQIDVALSQDSTYQGERAYQHGGVTGLSQY | – | – | 13 | 1 | 16 | 8 | 16 | 1 | 16 | 1 | –
HNRNPH2: host protein, UniProt P55795 (protein, UniProt P55795 1-449, looked up) Heterogeneous nuclear …: MMLSTEGREGFVVKVRGLPWSCSADEVMRFFSDCKIQNGTSGIRFIYTREGRPSGEAFVELESEEEVKLALKKDRETMGHRYVEVFKSNSVEMDWVLKHTGPNSPDTANDGFVRLRGLPFGCSKEEIVQFFSGLEIVPNGMTLPVDFQGRSTGEAFVQFASQEIAEKALKKHKERIGHRYIEIFKSSRAEVRTHYDPPRKLMAMQRPGPYDRPGAGRGYNSIGRGAGFERMRRGAYGGGYGGYDDYGGYNDGYGFGSDRFGRDLNYCFSGMSDHRYGDGGSSFQSTTGHCVHMRGLPYRATENDIYNFFSPLNPMRVHIEIGPDGRVTGEADVEFATHEDAVAAMAKDKANMQHRYVELFLNSTAGTSGGAYDHSYVELFLNSTAGASGGAYGSQMMGGMGLSNQSSYGGPASQQLSGGYGGGYGGQSSMSGYDQVLQENSSDYQSNLA | 12 | 1 | 10 | 1 | 8 | – | 10 | 1 | 8 | 1 | 4
LRRC59 (protein, UniProt Q96AG4 1-307, looked up) Leucine-rich …: MTKAGSKGGNLRDKLDGNELDLSLSDLNEVPVKELAALPKATILDLSCNKLTTLPSDFCGLTHLVKLDLSKNKLQQLPADFGRLVNLQHLDLLNNKLVTLPVSFAQLKNLKWLDLKDNPLDPVLAKVAGDCLDEKQCKQCANKVLQHMKAVQADQERERQRRLEVEREAEKKREAKQRAKEAQERELRKREKAEEKERRRKEYDALKAAKREQEKKPKKEANQAPKSKSGSRPRKPPPRKHTRSWAVLKLLLLLLLFGVAGGLVACRVTELQQQPLCTSVNTIYDNAVQGLRRHEILQWVLQTDSQQ | – | – | 9 | 1 | 6 | – | 5 | 1 | – | – | –
SRSF10 (protein, UniProt O75494 1-262, looked up) Serine/arginine-rich splicing …: MSRYLRPPNTSLFVRNVADDTRSEDLRREFGRYGPIVDVYVPLDFYTRRPRGFAYVQFEDVRDAEDALHNLDRKWICGRQIEIQFAQGDRKTPNQMKAKEGRNVYSSSRYDDYDRYRRSRSRSYERRRSRSRSFDYNYRRSYSPRNSRPTGRPRRSRSHSDNDRFKHRNRSFSRSKSNSRSRSKSQPKKEMKAKSRSRSASHTKTRGTSKTDSKTHYKSGSRYEKESRKKEPPRSKSQSRSQSRSRSKSRSRSWTSPKSSGH | – | – | 9 | 1 | 6 | 6 | 9 | 1 | – | – | –
DDX1: host protein, UniProt Q92499 (protein, UniProt Q92499 1-740, looked up) ATP-dependent RNA helicase …: MAAFSEMGVMPEIAQAVEEMDWLLPTDIQAESIPLILGGGDVLMAAETGSGKTGAFSIPVIQIVYETLKDQQEGKKGKTTIKTGASVLNKWQMNPYDRGSAFAIGSDGLCCQSREVKEWHGCRATKGLMKGKHYYEVSCHDQGLCRVGWSTMQASLDLGTDKFGFGFGGTGKKSHNKQFDNYGEEFTMHDTIGCYLDIDKGHVKFSKNGKDLGLAFEIPPHMKNQALFPACVLKNAELKFNFGEEEFKFPPKDGFVALSKAPDGYIVKSQHSGNAQVTQTKFLPNAPKALIVEPSRELAEQTLNNIKQFKKYIDNPKLRELLIIGGVAARDQLSVLENGVDIVVGTPGRLDDLVSTGKLNLSQVRFLVLDEADGLLSQGYSDFINRMHNQIPQVTSDGKRLQVIVCSATLHSFDVKKLSEKIMHFPTWVDLKGEDSVPDTVHHVVVPVNPKTDRLWERLGKSHIRTDDVHAKDNTRPGANSPEMWSEAIKILKGEYAVRAIKEHKMDQAIIFCRTKIDCDNLEQYFIQQGGGPDKKGHQFSCVCLHGDRKPHERKQNLERFKKGDVRFLICTDVAARGIDIHGVPYVINVTLPDEKQNYVHRIGRVGRAERMGLAISLVATEKEKVWYHVCSSRGKGCYNTRLKEDGGCTIWYNEMQLLSEIEEHLNCTISQVEPDIKVPVDEFDGKVTYGQKRAAGGGSYKGHVDILAPTVQELAALEKEAQTSFLHLGYLPNQLFRTF | 12 | 1 | 12 | 1 | 9 | 7 | 11 | 1 | 9 | 1 | –
RBM15: host protein, UniProt Q96T37 (protein, UniProt Q96T37 1-977, looked up) RNA-binding protein 15: MRTAGRDPVPRRSPRWRRAVPLCETSAGRRVTQLRGDDLRRPATMKGKERSPVKAKRSRGGEDSTSRGERSKKLGGSGGSNGSSSGKTDSGGGSRRSLHLDKSSSRGGSREYDTGGGSSSSRLHSYSSPSTKNSSGGGESRSSSRGGGGESRSSGAASSAPGGGDGAEYKTLKISELGSQLSDEAVEDGLFHEFKRFGDVSVKISHLSGSGSGDERVAFVNFRRPEDARAAKHARGRLVLYDRPLKIEAVYVSRRRSRSPLDKDTYPPSASVVGASVGGHRHPPGGGGGQRSLSPGGAALGYRDYRLQQLALGRLPPPPPPPLPRDLERERDYPFYERVRPAYSLEPRVGAGAGAAPFREVDEISPEDDQRANRTLFLGNLDITVTESDLRRAFDRFGVITEVDIKRPSRGQTSTYGFLKFENLDMSHRAKLAMSGKIIIRNPIKIGYGKATPTTRLWVGGLGPWVPLAALAREFDRFGTIRTIDYRKGDSWAYIQYESLDAAHAAWTHMRGFPLGGPDRRLRVDFADTEHRYQQQYLQPLPLTHYELVTDAFGHRAPDPLRGARDRTPPLLYRDRDRDLYPDSDWVPPPPPVRERSTRTAATSVPAYEPLDSLDRRRDGWSLDRDRGDRDLPSSRDQPRKRRLPEESGGRHLDRSPESDRPRKRHCAPSPDRSPELSSSRDRYNSDNDRSSRLLLERPSPIRDRRGSLEKSQGDKRDRKNSASAERDRKHRTTAPTEGKSPLKKEDRSDGSAPSTSTASSKLKSPSQKQDGGTAPVASASPKLCLAWQGMLLLKNSNFPSNMHLLQGDLQVASSLLVEGSTGGKVAQLKITQRLRLDQPKLDEVTRRIKVAGPNGYAILLAVPGSSDSRSSSSSAASDTATSTQRPLRNLVSYLKQKQAAGVISLPVGGNKDKENTGVLHAFPPCEFSQQFLDSPAKALAKSEEDYLVMIIVRGFGFQIGVRYENKKRENLALTLL | 9 | 1 | 14 | 1 | – | – | 11 | 1 | – | – | 5
